Test results published in publication PMC3078058 (Nature, 2011).

B1: CusB membrane fusion protein (natural protein, Escherichia coli, UniProt P77239 29-407, looked up)
chain: EPPAEKTSTAERKILFWYDPMYPNTRFDKPGKSPFMDMDLVPKYADEESSASGVRIDPTQTQNLGVKTATVTRGPLTFAQSFPANVSYNEYQYAIVQARAAGFIDKVYPLTVGDKVQKGTPLLDLTIPDWVEAQSEYLLLRETGGTATQTEGILERLRLAGMPEADIRRLIATQKIQTRFTLKAPIDGVITAFDLRAGMNIAKDNVVAKIQGMDPVWVTAAIPESIAWLVKDASQFTLTVPARPDKTLTIRKWTLLPGVDAATRTLQLRLEVDNADEALKPGMNAWLQLNTASEPMLLIPSQALIDTGSEQRVITVDADGRFVPKRVAVFQASQGVTALRSGLAEGEKVVSSGLFLIDSEANISGALERMRSESATHAH
B2: CusA inner membrane RND efflux pump (natural protein, Escherichia coli, UniProt P38054 1-1047, looked up)
chain: MIEWIIRRSVANRFLVLMGALFLSIWGTWTIINTPVDALPDLSDVQVIIKTSYPGQAPQIVENQVTYPLTTTMLSVPGAKTVRGFSQFGDSYVYVIFEDGTDPYWARSRVLEYLNQVQGKLPAGVSAELGPDATGVGWIYEYALVDRSGKHDLADLRSLQDWFLKYELKTIPDVAEVASVGGVVKEYQVVIDPQRLAQYGISLAEVKSALDASNQEAGGSSIELAEAEYMVRASGYLQTLDDFNHIVLKASENGVPVYLRDVAKVQIGPEMRRGIAELNGEGEVAGGVVILRSGKNAREVIAAVKDKLETLKSSLPEGVEIVTTYDRSQLIDRAIDNLSGKLLEEFIVVAVVCALFLWHVRSALVAIISLPLGLCIAFIVMHFQGLNANIMSLGGIAIAVGAMVDAAIVMIENAHKRLEEWQHQHPDATLDNKTRWQVITDASVEVGPALFISLLIITLSFIPIFTLEGQEGRLFGPLAFTKTYAMAGAALLAIVVIPILMGYWIRGKIPPESSNPLNRFLIRVYHPLLLKVLHWPKTTLLVAALSVLTVLWPLNKVGGEFLPQINEGDLLYMPSTLPGISAAEAASMLQKTDKLIMSVPEVARVFGKTGKAETATDSAPLEMVETTIQLKPQEQWRPGMTMDKIIEELDNTVRLPGLANLWVPPIRNRIDMLSTGIKSPIGIKVSGTVLADIDAMAEQIEEVARTVPGVASALAERLEGGRYINVEINREKAARYGMTVADVQLFVTSAVGGAMVGETVEGIARYPINLRYPQSWRDSPQALRQLPILTPMKQQITLADVADIKVSTGPSMLKTENARPTSWIYIDARDRDMVSVVHDLQKAIAEKVQLKPGTSVAFSGQFELLERANHKLKLMVPMTLMIIFVLLYLAFRRVGEALLIISSVPFALVGGIWLLWWMGFHLSVATGTGFIALAGVAAEFGVVMLMYLRHAIEAVPSLNNPQTFSEQKLDEALYHGAVLRVRPKAMTVAVIIAGLLPILWGTGAGSEVMSRIAAPMIGGMITAPLLSLFIIPAAYKLMWLHRHRVRK

Legend:
crystal structure = molecular target: the molecule itself; assay: crystal structure
[1] = molecular target: B2; assay: ITC

Binder	stoichiometry N (crystal structure)	Kd [1] [µM]
B1	6	5.1 ± 0.3
B2	3	–
